# Test results from the Human Domainome abundance scans (Beltran et al. 2025).
# ± gives the uncertainty stated by the source.
# B1: PDZ and LIM domain protein 2, residues 284 to 339; numbered along this chain, Q96JY6 (parent)
# chain: HTCEKCSTSIANQAVRIQEGRYRHPGCYTCADCGLNLKMRGHFWVGDELYCEKHAR
# Variants of: B1
# Experiment: abundance fitness (aPCA) (normalised: wild type 0, dead -1); higher = more abundant; growth selection in yeast, the domain comes from the species named
# Settings: Homo sapiens
row,Variant,abundance fitness
1,HTCEKCSTSIANQAVRIQEGRYRFPGCYTCADCGLNLKMRGHFWVGDELYCEKHAR [H24F],-0.938 ± 0.19
2,HTCEKCSTSIANQAVRIQEGRYRAPGCYTCADCGLNLKMRGHFWVGDELYCEKHAR [H24A],-0.307 ± 0.098
3,HTCEKCSTSIANQAVRIQEGRYRIPGCYTCADCGLNLKMRGHFWVGDELYCEKHAR [H24I],-0.973 ± 0.36
4,HTCEKCSTSIANQAVRIQEGRYRCPGCYTCADCGLNLKMRGHFWVGDELYCEKHAR [H24C],0.309 ± 0.063
5,HTCEKCSTSIANQAVRIQEGRYREPGCYTCADCGLNLKMRGHFWVGDELYCEKHAR [H24E],-0.439 ± 0.14
6,HTCEKCSTSIANQAVRIQEGRYRGPGCYTCADCGLNLKMRGHFWVGDELYCEKHAR [H24G],-0.489 ± 0.089
7,HTCEKCSTSIANQAVRIQEGRYRDPGCYTCADCGLNLKMRGHFWVGDELYCEKHAR [H24D],-0.047 ± 0.08
8,HTCEKCSTSIANQAVRIQEGRYNHPGCYTCADCGLNLKMRGHFWVGDELYCEKHAR [R23N],-0.173 ± 0.18
9,HTCEKCSTSIANQAVRIQEGRYGHPGCYTCADCGLNLKMRGHFWVGDELYCEKHAR [R23G],-0.457 ± 0.059
10,HTCEKCSTSIANQAVRIQEGRYWHPGCYTCADCGLNLKMRGHFWVGDELYCEKHAR [R23W],-0.431 ± 0.21
11,HTCEKCSTSIANQAVRIQEGRYLHPGCYTCADCGLNLKMRGHFWVGDELYCEKHAR [R23L],-0.212 ± 0.062
12,HTCEKCSTSIANQAVRIQEGRYEHPGCYTCADCGLNLKMRGHFWVGDELYCEKHAR [R23E],-0.318 ± 0.14
13,HTCEKCSTSIANQAVRIQEGRYKHPGCYTCADCGLNLKMRGHFWVGDELYCEKHAR [R23K],-0.315 ± 0.13
14,HTCEKCSTSIANQAVRIQEGRYHHPGCYTCADCGLNLKMRGHFWVGDELYCEKHAR [R23H],-0.302 ± 0.074
15,HTCEKCSTSIANQAVRIQEGRYFHPGCYTCADCGLNLKMRGHFWVGDELYCEKHAR [R23F],-0.391 ± 0.23
16,HTCEKCSTSIANQAVRIQEGRYTHPGCYTCADCGLNLKMRGHFWVGDELYCEKHAR [R23T],-0.125 ± 0.089
17,HTCEKCSTSIANQAVRIQEGRYYHPGCYTCADCGLNLKMRGHFWVGDELYCEKHAR [R23Y],-0.303 ± 0.066
18,HTCEKCSTSIANQAVRIQEGRYAHPGCYTCADCGLNLKMRGHFWVGDELYCEKHAR [R23A],-0.108 ± 0.067
19,HTCEKCSTSIANQAVRIQEGRYVHPGCYTCADCGLNLKMRGHFWVGDELYCEKHAR [R23V],-0.075 ± 0.065
20,HTCEKCSTSIANQAVRIQEGRYIHPGCYTCADCGLNLKMRGHFWVGDELYCEKHAR [R23I],-0.69 ± 0.21
21,HTCEKCSTSIANQAVRIQEGRYCHPGCYTCADCGLNLKMRGHFWVGDELYCEKHAR [R23C],-0.238 ± 0.11
22,HTCEKCSTSIANQAVRIQEGRYPHPGCYTCADCGLNLKMRGHFWVGDELYCEKHAR [R23P],-0.111 ± 0.13
23,HTCEKCSTSIANQAVRIQEGRYSHPGCYTCADCGLNLKMRGHFWVGDELYCEKHAR [R23S],-0.278 ± 0.072
24,HTCEKCSTSIANQAVRIQEGRYMHPGCYTCADCGLNLKMRGHFWVGDELYCEKHAR [R23M],-0.317 ± 0.12

row,Variant,abundance fitness
1,HTCEKCSTSIANQAVRIQEGRYQHPGCYTCADCGLNLKMRGHFWVGDELYCEKHAR [R23Q],-0.509 ± 0.27
2,HTCEKCSTSIANQAVRIQEGRYDHPGCYTCADCGLNLKMRGHFWVGDELYCEKHAR [R23D],-0.486 ± 0.11
3,HTCEKCSTSIANQAVRIQEGDYRHPGCYTCADCGLNLKMRGHFWVGDELYCEKHAR [R21D],-0.217 ± 0.15
4,HTCEKCSTSIANQAVRIQEGEYRHPGCYTCADCGLNLKMRGHFWVGDELYCEKHAR [R21E],-0.286 ± 0.14
5,HTCEKCSTSIANQAVRIQEGLYRHPGCYTCADCGLNLKMRGHFWVGDELYCEKHAR [R21L],-0.01 ± 0.067
6,HTCEKCSTSIANQAVRIQEGHYRHPGCYTCADCGLNLKMRGHFWVGDELYCEKHAR [R21H],-0.015 ± 0.055
7,HTCEKCSTSIANQAVRIQEGYYRHPGCYTCADCGLNLKMRGHFWVGDELYCEKHAR [R21Y],-0.008 ± 0.11
8,HTCEKCSTSIANQAVRIQEGFYRHPGCYTCADCGLNLKMRGHFWVGDELYCEKHAR [R21F],-0.01 ± 0.14
9,HTCEKCSTSIANQAVRIQEGMYRHPGCYTCADCGLNLKMRGHFWVGDELYCEKHAR [R21M],0.035 ± 0.12
10,HTCEKCSTSIANQAVRIQEGTYRHPGCYTCADCGLNLKMRGHFWVGDELYCEKHAR [R21T],0.151 ± 0.12
11,HTCEKCSTSIANQAVRIQEGCYRHPGCYTCADCGLNLKMRGHFWVGDELYCEKHAR [R21C],-0.069 ± 0.12
12,HTCEKCSTSIANQAVRIQEGVYRHPGCYTCADCGLNLKMRGHFWVGDELYCEKHAR [R21V],0.11 ± 0.099
13,HTCEKCSTSIANQAVRIQEGGYRHPGCYTCADCGLNLKMRGHFWVGDELYCEKHAR [R21G],-0.251 ± 0.058
14,HTCEKCSTSIANQAVRIQEGSYRHPGCYTCADCGLNLKMRGHFWVGDELYCEKHAR [R21S],-0.02 ± 0.066
15,HTCEKCSTSIANQAVRIQEGNYRHPGCYTCADCGLNLKMRGHFWVGDELYCEKHAR [R21N],-0.259 ± 0.18
16,HTCEKCSTSIANQAVRIQEGAYRHPGCYTCADCGLNLKMRGHFWVGDELYCEKHAR [R21A],0.015 ± 0.071
17,HTCEKCSTSIANQAVRIQEGPYRHPGCYTCADCGLNLKMRGHFWVGDELYCEKHAR [R21P],-0.101 ± 0.11
18,HTCEKCSTSIANQAVRIQEGKYRHPGCYTCADCGLNLKMRGHFWVGDELYCEKHAR [R21K],0.002 ± 0.077
19,HTCEKCSTSIANQAVRIQEGIYRHPGCYTCADCGLNLKMRGHFWVGDELYCEKHAR [R21I],-0.046 ± 0.14
20,HTCEKCSTSIANQAVRIQEARYRHPGCYTCADCGLNLKMRGHFWVGDELYCEKHAR [G20A],-0.251 ± 0.11
21,HTCEKCSTSIANQAVRIQEKRYRHPGCYTCADCGLNLKMRGHFWVGDELYCEKHAR [G20K],-0.023 ± 0.17
22,HTCEKCSTSIANQAVRIQEERYRHPGCYTCADCGLNLKMRGHFWVGDELYCEKHAR [G20E],-0.209 ± 0.15
23,HTCEKCSTSIANQAVRIQETRYRHPGCYTCADCGLNLKMRGHFWVGDELYCEKHAR [G20T],-0.129 ± 0.069
